Assay results: publication PMC314469, “Protein Interaction Networks by Proteome Peptide Scanning” (PLoS Biology, 2004)

T1: amphyphisin SH3 (AMPH_HUMAN), P49418
T1 chain: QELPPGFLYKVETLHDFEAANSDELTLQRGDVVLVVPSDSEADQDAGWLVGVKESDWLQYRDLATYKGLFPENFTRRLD


Molecular target: endophilin SH3 (SH3G2_HUMAN), Q99962
Experiment: SPOT array

Binder	normalised SPOT signal, Boehringer light units (BLU); mean over the file's lines of this peptide
MWGFLKRPVVVTAD [Q9Y6A1 1-14]	121
ARGSPARPRRLPLL [Q13308 4-17]	1930
NLLPPKRPIKEVLT [Q9NNY5 699-712]	1560
NGAEPKRPSRPINI [Q9Y6X2 222-235]	105
MQFSIRRPKLPSSE [Q96DH7 35-48]	532
NFGDLGRPGRGGRG [Q9Y367 343-356]	882
NEPHIKRPMNAFMV [P35711 136-149]	0
MTTTPERPRRGIPG [P27708 1830-1843]	2030
MVPGPARPPGSSWD [Q9BRN8 20-34]	33.6
NETGLSRPRRTAMS [Q15598 1736-1749]	154
MTSSLQRPWRVPWL [Q13873 1-14]	227
NLFGPKRPKALKLL [O75560 490-503]	1970
NEPLFVRPPKGSPQ [Q9H251 2718-2731]	154
NDRFPFRPSRGRPT [Q9Y3I1 502-515]	4510
NIQTLDRPIKKGPV [Q9P2M9 345-358]	58.7
MTVAIRRPGVPGAP [Q96IB4 40-53]	80.3
NFGNLPRPGRGARG [Q9NYJ2 360-373]	1340
ARARPRRPREETLT [P53539 138-151]	181
NMNRFDRPDRNVRQ [Q9ULU1 327-340]	452
ARAALRRPLSGQAL [Q96GZ7 12-25]	85.3
MSTPLRRPSASETV [Q9P2M8 940-953]	228

Binder	normalised SPOT signal, Boehringer light units (BLU); mean over the file's lines of this peptide
NKVPIKRPSTGLLM [Q92187 271-284]	366
AREEFRRPRESLLN [Q96JI4 1223-1236]	27.4
NGYFFKRPYPFVLF [Q9NWE7 371-384]	106
NGVEPKRPSRPINI [O75925 239-252]	35.6
NSQAPRRPWLASHM [O43284 274-287]	6860
NMSDPRRPNKVLRY [Q9Y284 5-18]	1060
NSFIPKRPIPTIKD [Q96TH1 910-923]	556
MSLLLRRPPGREAY [P25705 324-337]	63.4
NKIEFKRPGKAANK [Q9ULP1 1037-1050]	128
MSSAPRRPAKGADS [Q99654 1-14]	222
NSEHFHRPLRRSEA [O15050 583-596]	199
NIEKIKRPRSSNAE [Q12920 238-251]	55.4
NKVHIKRPTTGLLM [Q92186 286-299]	125
NGTQILRPPKVLSP [Q14676 96-109]	150
NINGIRRPLQGVAN [Q9Y5X7 8-21]	44.7
MNMTPRRPGPTRKH [P10747 192-205]	2530
NFQPPKRPFKRMNY [O43776 380-393]	525
NLSLLRRPGEKTYT [P23246 281-294]	23.4
NAALFPRPERYNPQ [P19099 413-426]	63.6
MRKYPNRPSKTPPH [P18146 321-334]	1570
NEDYPRRPLTRARS [Q9HC40 116-129]	690

Molecular target: T1, amphyphisin SH3 (AMPH_HUMAN), P49418
Experiment: SPOT array

Binder	normalised SPOT signal, Boehringer light units (BLU); mean over the file's lines of this peptide
MWGFLKRPVVVTAD [Q9Y6A1 1-14]	37.8
ARGSPARPRRLPLL [Q13308 4-17]	6690
NLLPPKRPIKEVLT [Q9NNY5 699-712]	370
NGAEPKRPSRPINI [Q9Y6X2 222-235]	3920
MQFSIRRPKLPSSE [Q96DH7 35-48]	118
NFGDLGRPGRGGRG [Q9Y367 343-356]	895
NEPHIKRPMNAFMV [P35711 136-149]	46.1
MTTTPERPRRGIPG [P27708 1830-1843]	9560
MVPGPARPPGSSWD [Q9BRN8 20-34]	45.4
NETGLSRPRRTAMS [Q15598 1736-1749]	742
MTSSLQRPWRVPWL [Q13873 1-14]	506
NLFGPKRPKALKLL [O75560 490-503]	113
NEPLFVRPPKGSPQ [Q9H251 2718-2731]	215
NDRFPFRPSRGRPT [Q9Y3I1 502-515]	2600
NIQTLDRPIKKGPV [Q9P2M9 345-358]	16.4
MTVAIRRPGVPGAP [Q96IB4 40-53]	55.2
NFGNLPRPGRGARG [Q9NYJ2 360-373]	946
ARARPRRPREETLT [P53539 138-151]	42.3
NMNRFDRPDRNVRQ [Q9ULU1 327-340]	3660
ARAALRRPLSGQAL [Q96GZ7 12-25]	87.1
MSTPLRRPSASETV [Q9P2M8 940-953]	18.3

Binder	normalised SPOT signal, Boehringer light units (BLU); mean over the file's lines of this peptide
NKVPIKRPSTGLLM [Q92187 271-284]	6.6
AREEFRRPRESLLN [Q96JI4 1223-1236]	19.8
NGYFFKRPYPFVLF [Q9NWE7 371-384]	64.4
NGVEPKRPSRPINI [O75925 239-252]	4650
NSQAPRRPWLASHM [O43284 274-287]	88.2
NMSDPRRPNKVLRY [Q9Y284 5-18]	641
NSFIPKRPIPTIKD [Q96TH1 910-923]	49.2
MSLLLRRPPGREAY [P25705 324-337]	15.9
NKIEFKRPGKAANK [Q9ULP1 1037-1050]	124
MSSAPRRPAKGADS [Q99654 1-14]	178
NSEHFHRPLRRSEA [O15050 583-596]	512
NIEKIKRPRSSNAE [Q12920 238-251]	26.5
NKVHIKRPTTGLLM [Q92186 286-299]	32.2
NGTQILRPPKVLSP [Q14676 96-109]	5
NINGIRRPLQGVAN [Q9Y5X7 8-21]	17.3
MNMTPRRPGPTRKH [P10747 192-205]	76.1
NFQPPKRPFKRMNY [O43776 380-393]	793
NLSLLRRPGEKTYT [P23246 281-294]	29.7
NAALFPRPERYNPQ [P19099 413-426]	699
MRKYPNRPSKTPPH [P18146 321-334]	222
NEDYPRRPLTRARS [Q9HC40 116-129]	393
